Data reported in patent US20250339531A1, “DUX4 POLYPEPTIDES AND NUCLEIC ACIDS FOR TREATING INFLAMMATORY AND AUTOIMMUNE CONDITIONS” (Fred Hutchinson Cancer Center, priority 2021, published 2025).

Tested on: proteins that co-immunoprecipitated with DUX4-CTD constructs expressed in MB135 myoblasts
Assay: LC-MS of proteins co-immunoprecipitated with DUX4-CTD (Table 1) and western validation
Format: binding, human
Parameters: key to 4. mL1dL2 + Dox + IFNG / 4. + IFNG mix / 4. longCTD + Dox + IFNG / 3. + IFNg + Dox longCTD / 3. + Dox longCTD / 3. + IFNG longCTD: peptide-spectrum matches (PSMs) per protein
Settings: kind of count not given; for 4. + IFNG mix: LC-MS value per protein co-immunoprecipitated from MB135 myoblasts, + IFNG mix sample (no Dox); for 4. mL1dL2 + Dox + IFNG: LC-MS value per protein co-immunoprecipitated with DUX4-CTD construct mL1dL2 in MB135 myoblasts
Procedure, shortened: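 Two independent experiments compared uninduced, doxycycline and doxycycline+IFNG MB135iDUX4-CTD (plus MB135iDUX4mL1dL2) myoblasts. Anti-FLAG pulldowns (3 h, 4 °C) were eluted in LDS buffer for western validation or with FLAG peptide for trypsin digestion and Orbitrap LC-MS; hits needed ≥2 PSMs in both experiments, ranked by total PSMs.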

B1: RTN4 (protein)
chain: MEDLDQSPLVSSSDSPPRPQPAFKYQFVREPEDEEEEEEEEEEDEDEDLEELEVLERKPAAGLSAAPVPTAPAAGAPLMDFGNDFVPPAPRGPLPAAPPVAPERQPSWDPSPVSSTVPAPSPLSAAAVSPSKLPEDDEPPARPPPPPPASVSPQAEPVWTPPAPAPAAPPSTPAAPKRRGSSGSVDETLFALPAASEPVIRSSAENMDLKEQPGNTISAGQEDFPSVLLETAASLPSLSPLSAASFKEHEYLGNLSTVLPTEGTLQENVSEASKEVSEKAKTLLIDRDLTEFSELEYSEMGSSFSVSPKAESAVIVANPREEIIVKNKDEEEKLVSNNILHNQQELPTALTKLVKEDEVVSSEKAKDSFNEKRVAVEAPMREEYADFKPFERVWEVKDSKEDSDMLAAGGKIESNLESKVDKKCFADSLEQTNHEKDSESSNDDTSFPSTPEGIKDRSGAYITCAPFNPAATESIATNIFPLLGDPTSENKTDEKKIEEKKAQIVTEKNTSTKTSNPFLVAAQDSETDYVTTDNLTKVTEEVVANMPEGLTPDLVQEACESELNEVTGTKIAYETKMDLVQTSEVMQESLYPAAQLCPSFEESEATPSPVLPDIVMEAPLNSAVPSAGASVIQPSSSPLEASSVNYESIKHEPENPPPYEEAMSVSLKKVSGIKEEIKEPENINAALQETEAPYISIACDLIKETKLSAEPAPDFSDYSEMAKVEQPVPDHSELVEDSSPDSEPVDLFSDDSIPDVPQKQDETVMLVKESLTETSFESMIEYENKEKLSALPPEGGKPYLESFKLSLDNTKDTLLPDEVSTLSKKEKIPLQMEELSTAVYSNDDLFISKEAQIRETETFSDSSPIEIIDEFPTLISSKTDSFSKLAREYTDLEVSHKSEIANAPDGAGSLPCTELPHDLSLKNIQPKVEEKISFSDDFSKNGSATSKVLLLPPDVSALATQAEIESIVKPKVLVKEAEKKLPSDTEKEDRSPSAIFSAELSKTSVVDLLYWRDIKKTGVVFGASLFLLLSLTVFSIVSVTAYIALALLSVTISFRIYKGVIQAIQKSDEGHPFRAYLESEVAISEELVQKYSNSALGHVNCTIKELRRLFLVDDLVDSLKFAVLMWVFTYVGALFNGLTLLILALISLFSVPVIYERHQAQIDHYLGLANKNVKDAMAKIQAKIPGLKRKAE
  4. + IFNG mix: 5
  4. mL1dL2 + Dox + IFNG: 5

B2: PHGDH (protein)
chain: AFANLRKVLISDSLDPCCRKILQDGGLQVVEKQNLSKEELIAELQDCEGLIVRSATKVTADVINAAEKLQVVGRAGTGVDNVDLEAATRKGILVMNTPNGNSLSAAELTCGMIMCLARQIPQATASMKDGKWERKKFMGTELNGKTLGILGLGRIGREVATRMQSFGMKTIGYDPIISPEVSASFGVQQLPLEEIWPLCDFITVHTPLLPSTTGLLNDNTFAQCKKGVRVVNCARGGIVDEGALLRALQSGQCAGAALDVFTEEPPRDRALVDHENVISCPHLGASTKEAQSRCGEEIAVQFVDMVKGKSLTGVVNAQALTSAFSPHTKPWIGLAEALGTLMRAWAGSPKGTIQVITQGTSLKNAGNCLSPAVIVGLLKEASKQADVNLVNAKLLVKEAGLNVTTSHSPAAPGEQGFGECLLAVALAGAPYQAVGLVQGTTPVLQGLNGAVFRPEVPLRRDLPLLLFRTQTSDPAMLPTMIGLLAEAGVRLLSYQTSLVSDGETWHVMGISSLLPSLEAWKQHVTEAFQFHF
  4. mL1dL2 + Dox + IFNG: 1

B3: PLOD1 (protein)
chain: KGDAKPEDNLLVLTVATKETEGFRRFKRSAQFFNYKIQALGLGEDWNVEKGTSAGGGQKVRLLKKALEKHADKEDLVILFADSYDVLFASGPRELLKKFRQARSQVVFSAEELIYPDRRLETKYPVVSDGKRFLGSGGFIGYAPNLSKLVAEWEGQDSDSDQLFYTKIFLDPEKREQINITLDHRCRIFQNLDGALDEVVLKFEMGHVRARNLAYDTLPVLIHGNGPTKLQLNYLGNYIPRFWTFETGCTVCDEGLRSLKGIGDEALPTVLVGVFIEQPTPFVSLFFQRLLRLHYPQKHMRLFIHNHEQHHKAQVEEFLAQHGSEYQSVKLVGPEVRMANADARNMGADLCRQDRSCTYYFSVDADVALTEPNSLRLLIQQNKNVIAPLMTRHGRLWSNFWGALSADGYYARSEDYVDIVQGRRVGVWNVPYISNIYLIKGSALRGELQSSDLFHHSKLDPDMAFCANIRQQDVFMFLTNRHTLGHLLSLDSYRTTHLHNDLWEVFSNPEDWKEKYIHQNYTKALAGKLVETPCPDVYWFPIFTEVACDELVEEMEHFGQWSLGNNKDNRIQGGYENVPTIDIHMNQIGFEREWHKFLLEYIAPMTEKLYPGYYTRAQFDLAFVVRYKPDEQPSLMPHHDASTFTINIALNRVGVDYEGGGCRFLRYNCSIRAPRKGWTLMHPGRLTHYHEGLPTTRGTRYIAVSFVDP
  4. mL1dL2 + Dox + IFNG: 2

B4: S100A9 (protein)
chain: MTCKMSQLERNIETIINTFHQYSVKLGHPDTLNQGEFKELVRKDLQNFLKKENKNEKVIEHIMEDLDTNADKQLSFEEFIMLMARLTWASHEKMHEGDEGPGHHHKPGLGEGTP
  4. mL1dL2 + Dox + IFNG: 2

B5: SLC3A2 (protein)
chain: SQDTEVDMKEVELNELEPEKQPMNAASGAAMSLAGAEKNGLVKIKVAEDEAEAAAAAKFTGLSKEELLKVAGSPGWVRTRWALLLLFWLGWLGMLAGAVVIIVRAPRCRELPAQKWWHTGALYRIGDLQAFQGHGAGNLAGLKGRLDYLSSLKVKGLVLGPIHKNQKDDVAQTDLLQIDPNFGSKEDFDSLLQSAKKKSIRVILDLTPNYRGENSWFSTQVDTVATKVKDALEFWLQAGVDGFQVRDIENLKDASSFLAEWQNITKGFSEDRLLIAGTNSSDLQQILSLLESNKDLLLTSSYLSDSGSTGEHTKSLVTQYLNATGNRWCSWSLSQARLLTSFLPAQLLRLYQLMLFTLPGTPVFSYGDEIGLDAAALPGQPMEAPVMLWDESSFPDIPGAVSANMTVKGQSEDPGSLLSLFRRLSDQRSKERSLLHGDFHAFSAGPGLFSYIRHWDQNERFLVVLNFGDVGLSAGLQASDLPASASLPAKADLLLSTQPGREEGSPLELERLKLEPHEGLLLRFPYAA
  4. + IFNG mix: 2
  4. mL1dL2 + Dox + IFNG: 4

B6: HAT1 (protein)
chain: AGFGAMEKFLVEYKSAVEKKLAEYKCNTNTAIELKLVRFPEDLENDIRTFFPEYTHQLFGDDETAFGYKGLKILLYYIAGSLSTMFRVEYASKVDENFDCVEADDVEGKIRQIIPPGFCTNTNDFLSLLEKEVDFKPFGTLLHTYSVLSPTGGENFTFQIYKADMTCRGFREYHERLQTFLMWFIETASFIDVDDERWHYFLVFEKYNKDGATLFATVGYMTVYNYYVYPDKTRPRVSQMLILTPFQGQGHGAQLLETVHRYYTEFPTVLDITAEDPSKSYVKLRDFVLVKLCQDLPCFSREKLMQGFNEDMVIEAQQKFKINKQHARRVYEILRLLVTDMSDAEQYRSYRLDIKRRLISPYKKKQRDLAKMRKCLRPEELTNQMNQIEISMQHEQLEESFQELVEDYRRVIERLAQE
  4. + IFNG mix: 1
  4. mL1dL2 + Dox + IFNG: 10

B7: AP2A1 (protein)
chain: MPAVSKGDGMRGLAVFISDIRNCKSKEAEIKRINKELANIRSKFKGDKALDGYSKKKYVCKLLFIFLLGHDIDFGHMEAVNLLSSNKYTEKQIGYLFISVLVNSNSELIRLINNAIKNDLASRNPTFMCLALHCIANVGSREMGEAFAADIPRILVAGDSMDSVKQSAALCLLRLYKASPDLVPMGEWTARVVHLLNDQHMGVVTAAVSLITCLCKKNPDDFKTCVSLAVSRLSRIVSSASTDLQDYTYYFVPAPWLSVKLLRLLQCYPPPEDAAVKGRLVECLETVLNKAQEPPKSKKVQHSNAKNAILFETISLIIHYDSEPNLLVRACNQLGQFLQHRETNLRYLALESMCTLASSEFSHEAVKTHIDTVINALKTERDVSVRQRAADLLYAMCDRSNAKQIVSEMLRYLETADYAIREEIVLKVAILAEKYAVDYSWYVDTILNLIRIAGDYVSEEVWYRVLQIVTNRDDVQGYAAKTVFEALQAPACHENMVKVGGYILGEFGNLIAGDPRSSPPVQFSLLHSKFHLCSVATRALLLSTYIKFINLFPETKATIQGVLRAGSQLRNADVELQQRAVEYLTLSSVASTDVLATVLEEMPPFPERESSILAKLKRKKGPGAGSALDDGRRDPSSNDINGGMEPTPSTVSTPSPSADLLGLRAAPPPAAPPASAGAGNLLVDVFDGPAAQPSLGPTPEEAFLSELEPPAPESPMALLADPAPAADPGPEDIGPPIPEADELLNKFVCKNNGVLFENQLLQIGVKSEFRQNLGRMYLFYGNKTSVQFQNFSPTVVHPGDLQTQLAVQTKRVAAQVDGGAQVQQVLNIECLRDFLTPPLLSVRFRYGGAPQALTLKLPVTINKFFQPTEMAAQDFFQRWKQLSLPQQEAQKIFKANHPMDAEVTKAKLLGFGSALLDNVDPNPENFVGAGIIQTKALQVGCLLRLEPNAQAQMYRLTLRTSKEPVSRHLCELLAQQF
  4. mL1dL2 + Dox + IFNG: 5

B8: PRSS2 (protein)
chain: IVGGYICEENSVPYQVSLNSGYHFCGGSLISEQWVVSAGHCYKSAINSKLSGRGCEYHRIQVRLGEHNIEVLEGNEQFINAAKIIRHPKYNSRTLDNDILLIKLSSPAVINSRVSAISLPTAPPAAGTESLISGWGNTLSSGADYPDELQCLDAPVLSQAECEASYPGKITNNMFCVGFLEGGKDSCQGDSGGPVVSNGELQGIVSWGYGCAQKNRPGVYTKVYNYVDWIKDTIAANS
  4. mL1dL2 + Dox + IFNG: 1

B9: SLC25A3 (protein)
chain: AVEEQYSCDYGSGRFFILCGLGGIISCGTTHTALVPLDLVKCRMQVDPQKYKGIFNGFSVTLKEDGVRGLAKGWAPTFLGYSMQGLCKFGFYEVFKVLYSNMLGEENTYLWRTSLYLAASASAEFFADIALAPMEAAKVRIQTQPGYANTLRDAAPKMYKEEGLKAFYKGVAPLWMRQIPYTMMKFACFERTVEALYKFVVPKPRSECSKPEQLVVTFVAGYIAGVFCAIVSHPADSVVSVLNKEKGSSASLVLKRLGFKGVWKGLFARIIMIGTLTALQWFIYDSVKVYFRLPRPPPPEMPESLKKKLGLTQ
  4. + IFNG mix: 3
  4. mL1dL2 + Dox + IFNG: 2
